Values quoted from earlier work as cited in article PMC4034509, “Overcoming co-product inhibition in the nicotinamide independent asymmetric bioreduction of activated C=C-bonds using flavin-dependent ene-reductases” (Biotechnology and Bioengineering, 2013).

Biological target: Tyr206 (UniProt position 206, …)
Conditions: Not stated. The value is discussed in the context of the phenol/phenolate charge-transfer complex with the oxidised flavin in the EBP1 active site.

B1: Estrogen binding protein EBP1 (old yellow enzyme homologue) (Candida albicans) (protein)
chain: MTIESTNSFVVPSDTKLIDVTPLGSTKLFQPIKVGNNVLPQRIAYVPTTRFRASKDHIPSDLQLNYYNARSQYPGTLIITEATFASERGGIDLHVPGIYNDAQAKSWKKINEAIHGNGSFSSVQLWYLGRVANAKDLKDSGLPLIAPSAVYWDENSEKLAKEAGNELRALTEEEIDHIVEVEYPNAAKHALEAGFDYVEIHGAHGYLLDQFLNLASNKRTDKYGCGSIENRARLLLRVVDKLIEVVGANRLALRLSPWASFQGMEIEGEEIHSYILQQLQQRADNGQQLAYISLVEPRVTGIYDVSLKDQQGRSNEFAYKIWKGNFIRAGNYTYDAPEFKTLINDLKNDRSIIGFSRFFTSNPDLVEKLKLGKPLNYYNREEFYKYYNYGYNSYDESEKQVIGKPLA
pKa: 9.4
